Assay results taken from article PMC11229371, “The activity of CobB1 protein deacetylase contributes to nucleoid compaction in Streptomyces venezuelae spores by increasing HupS affinity for DNA” (Nucleic Acids Research, 2024).

Columns and labels:
[1] = target: T1, His-HupS (nonacetylated, -AcP) (Streptomyces venezuelae) (UniProt F2R5C9); test: BLI; settings: 1 mM Mg2+; BLI: 100 mM Tris-HCl pH 8.0, 200 mM NaCl, 1 mM MgCl2, 0.005% Tween-20, 0.1 mg/ml BSA, 30 C; EMSA: 50 mM Tris-HCl pH 8.0, 150 mM NaCl, 0.02% Tween-20, 10 mM Mg …
T1 sequence: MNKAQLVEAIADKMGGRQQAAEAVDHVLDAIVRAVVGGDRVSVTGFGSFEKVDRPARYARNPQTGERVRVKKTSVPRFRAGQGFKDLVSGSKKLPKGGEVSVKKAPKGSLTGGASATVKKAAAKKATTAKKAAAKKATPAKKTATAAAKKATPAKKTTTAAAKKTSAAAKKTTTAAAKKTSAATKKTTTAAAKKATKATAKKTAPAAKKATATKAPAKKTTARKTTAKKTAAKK

[2] = target: T2, His-HupS acetylated in vitro (+AcP) (Streptomyces venezuelae) (UniProt F2R5C9); test: BLI; settings: 1 mM Mg2+; lysine-acetylated; BLI: 100 mM Tris-HCl pH 8.0, 200 mM NaCl, 1 mM MgCl2, 0.005% Tween-20, 0.1 mg/ml BSA, 30 C; EMSA: 50 mM Tris-HCl pH 8.0, 150 mM NaCl, 0.02% Tween-20, 10 mM Mg …
T2 sequence: T1 sequence

For one-end biotinylated dsDNA 300 bp, the Kd [1] was 17.4 nM and the Kd [2] was 28.6 nM.

two-ends biotinylated dsDNA 300 bp showed a Kd [1] of 11.3 nM and a Kd [2] of 20 nM.
